According to patent publication US20110271397, “MOLECULAR CLOCK MECHANISM OF HYBRID VIGOR” (published 2011):

What was measured:
CCA1 [1] = biological target: T1, CCA1 (Arabidopsis thaliana, UniProt P92973 P92973:1-608); assay: EMSA; 10 fmol rCCA1 and 10 fmol probe; cold competitor 5-50x; conditions: tags: full-length cDNA in pET300/NT-DEST, E. coli Rosetta-gami B; label: 32P
Description: (§1) The cDNA was cloned into pDONR221 and validated by sequencing. The resulting insert was transferred by recombination into pET300/NT-DEST expression vector (Invitrogen Corp., Carlsbad, Calif.) and expressed in Escherichia coli Rosetta-gami B competent cells (Novagen, Madison, Wis.). Recombinant CCA1 protein was purified and subjected to EMSA in 6% native polyacrylamide gels using rCCA1 (10 fmoles) and ³²P-labeled double-stranded oligonucleotides (10 fmoles, Table 5). The cold probe (Cp) concentrations were 0 (-), 50 (5×), 100 (10×), 200 (20×), and 500 (50×) fmoles, respectively, according to a published protocol available at http://www.natureprotocols.com/2009/01/08/the_electrophoretic_mobility_s_{—}1.php.

CCA1 [2] = biological target: T1, CCA1; assay: EMSA; 10 fmol rCCA1 and 10 fmol probe; cold competitor 5-50x; text prints PORE for PORB; conditions: tags: full-length cDNA in pET300/NT-DEST, E. coli Rosetta-gami B; label: 32P
Description: as §1

T1 sequence (P92973 whole entry, one chain of several): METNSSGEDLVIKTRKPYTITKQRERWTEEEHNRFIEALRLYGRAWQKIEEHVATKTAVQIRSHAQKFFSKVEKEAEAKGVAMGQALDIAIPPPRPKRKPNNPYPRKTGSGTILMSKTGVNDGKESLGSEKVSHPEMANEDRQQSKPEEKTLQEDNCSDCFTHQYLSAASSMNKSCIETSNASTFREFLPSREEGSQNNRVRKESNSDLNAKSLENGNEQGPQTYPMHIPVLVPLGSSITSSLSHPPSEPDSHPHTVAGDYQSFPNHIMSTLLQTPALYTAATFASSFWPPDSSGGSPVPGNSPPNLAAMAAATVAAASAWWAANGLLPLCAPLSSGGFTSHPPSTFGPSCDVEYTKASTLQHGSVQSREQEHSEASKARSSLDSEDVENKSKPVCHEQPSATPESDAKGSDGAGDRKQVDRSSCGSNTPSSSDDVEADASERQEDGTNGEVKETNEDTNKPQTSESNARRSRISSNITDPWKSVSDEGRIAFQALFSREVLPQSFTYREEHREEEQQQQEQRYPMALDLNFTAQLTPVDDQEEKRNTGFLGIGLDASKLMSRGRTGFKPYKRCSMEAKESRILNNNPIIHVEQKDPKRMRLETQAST

B1: DPE1 promoter EE oligo (dsDNA)
DNA 1: AGAGCAACAAAATATCTCGACTGTT
DNA 2: AACAGTCGAGATATTTTGTTGCTCT
B1: binds (CCA1 [1]).

B2: GWD3 promoter EE oligo (dsDNA)
DNA 1: CACAAACAAAAAAATCTCTTATCAC
DNA 2: GTGATAAGAGATTTTTTTGTTTGTG
B2: binds (CCA1 [1]).

B3: PORB promoter EE oligo (dsDNA)
DNA 1: ATTAAAATAAAATATCTAAGGAGAA
DNA 2: TTCTCCTTAGATATTTTATTTTAAT
B3: binds (CCA1 [2]).

B4: TOC1 promoter EE oligo (dsDNA)
DNA 1: ACACAAAAAAAATATCTAATCACAG
DNA 2: CTGTGATTAGATATTTTTTTTGTGT
B4: binds (CCA1 [1]).

B5: PORA promoter EE oligo (dsDNA)
DNA 1: TATACATTAAAATATCTACTGACAG
DNA 2: CTGTCAGTAGATATTTTAATGTATA
B5: binds (CCA1 [1]).
